In patent US20170066831A1 (Janssen / Centocor, published 2017):
Positions count from the first letter of the chain named. Each block holds one binder with its values, some of them ahead of it.

Key:
[1] = molecular target: T1, human ST2L, full length, on cells (human, UniProt Q01638 19-556); experiment: cell-based or functional assay
T1 sequence: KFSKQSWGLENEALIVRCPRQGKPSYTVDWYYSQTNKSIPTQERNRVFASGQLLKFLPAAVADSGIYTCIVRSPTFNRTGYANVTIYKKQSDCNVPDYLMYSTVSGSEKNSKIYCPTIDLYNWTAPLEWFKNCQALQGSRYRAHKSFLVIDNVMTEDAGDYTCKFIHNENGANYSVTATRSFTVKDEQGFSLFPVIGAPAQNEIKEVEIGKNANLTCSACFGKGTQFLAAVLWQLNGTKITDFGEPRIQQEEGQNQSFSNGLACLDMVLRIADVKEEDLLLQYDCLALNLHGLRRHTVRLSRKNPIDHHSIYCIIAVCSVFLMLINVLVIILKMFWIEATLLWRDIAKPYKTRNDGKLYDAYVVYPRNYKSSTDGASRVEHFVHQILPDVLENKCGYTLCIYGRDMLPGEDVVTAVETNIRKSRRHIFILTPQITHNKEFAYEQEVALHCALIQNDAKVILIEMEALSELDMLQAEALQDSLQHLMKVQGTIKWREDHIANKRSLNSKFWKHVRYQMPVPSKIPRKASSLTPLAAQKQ

[2] = molecular target: T2, human ST2L extracellular domain with C-terminal His6 tag (human, UniProt Q01638 19-328); experiment: RLB ELISA: biotinylated IL-33 on coated huST2L-ECD, antibody titrated
T2 construct: also called huST2L-ECD; ST2L-ECD
T2 sequence: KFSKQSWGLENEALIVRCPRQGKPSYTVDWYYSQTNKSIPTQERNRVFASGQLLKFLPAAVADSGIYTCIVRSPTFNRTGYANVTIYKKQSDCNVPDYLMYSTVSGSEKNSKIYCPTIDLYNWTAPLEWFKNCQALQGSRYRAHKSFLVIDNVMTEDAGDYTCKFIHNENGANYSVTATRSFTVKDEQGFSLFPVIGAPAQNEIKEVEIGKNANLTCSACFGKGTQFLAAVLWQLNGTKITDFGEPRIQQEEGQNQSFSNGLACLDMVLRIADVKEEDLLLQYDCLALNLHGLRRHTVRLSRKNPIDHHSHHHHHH
Method: 96-well plate was coated with 50 μl of 4 μg/ml human ST2L-ECD (amino acids 19-328 of SEQ ID NO: 1) or 2 μg/ml cyno ST2L-ECD (amino acids 19-321 of SEQ ID NO: 2) having C-terminal His₆ tag in bicarbonate buffer at 4° C. for 16 hrs. All subsequent steps were performed at room temperature. Plate was blocked with 200 μl blocking buffer, and was washed 3 times with 300 μl of wash buffer containing PBS+0.05% Tween. 30 μl of various dilutions of anti-ST2L mAbs were added to the wells and incubated for 1 hour. For human receptor-ligand binding assay 20 μl of biotinylated human IL-33 (residues 112-270 of SEQ ID NO: 3) was added at 100 ng/ml final concentration and incubated for 30 minutes. For cyno receptor-ligand binding assay 20 μl of biotinylated cyno IL-33 (residues 112-269 of SEQ ID NO: 4) was added at 200 ng/ml final concentration and incubated for 30 minutes. The plate was washed 3 times with 300 μl of wash buffer. 50 μl of 0.2 μg/ml Streptavidin-HRP (Jackson Immunoresearch) was added and incubated for 30 min. The plate was washed 3 times with 300 μl of wash buffer containing PBS+0.05% Tween. 50 μl of TMB substrate (EMD Biosciences) was added to each well. Reaction was stopped by the addition of 100 μl of 0.2N Sulfuric Acid. OD450 were measured using Envision plate reader (Perkin Elmer).

[3] = molecular target: T3, cynomolgus (Macaca fascicularis) ST2L extracellular domain with C-terminal His6 tag (Macaca fascicularis (cynomolgus), UniProt Q01638 19-321 (human entry)); experiment: SPR, mAb captured, ST2L-ECD in solution
T3 construct: also called cyno ST2L-ECD; cynoST2L-ECD
T3 chain: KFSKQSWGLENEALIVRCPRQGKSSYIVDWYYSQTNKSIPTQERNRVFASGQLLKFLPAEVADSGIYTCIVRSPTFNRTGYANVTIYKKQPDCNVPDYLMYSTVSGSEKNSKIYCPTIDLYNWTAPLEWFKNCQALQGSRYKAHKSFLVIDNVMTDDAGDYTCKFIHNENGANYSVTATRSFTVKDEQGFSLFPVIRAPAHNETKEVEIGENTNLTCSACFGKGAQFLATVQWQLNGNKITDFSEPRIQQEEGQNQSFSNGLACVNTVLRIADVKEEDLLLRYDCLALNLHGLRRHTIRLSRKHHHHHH

[4] = molecular target: T2, human ST2L extracellular domain with …; experiment: SPR, mAb captured, ST2L-ECD in solution

B2: STLM124 (antibody, V domains shown)
VH: EVQLLESGGGLVQPGGSLRLSCAASGFTFSIYDMIWVRQAPGKGLEWVSTIKGEGGGTYYADSVKGRFTISRDNSKNTLYLQMNSLRAEDTAVYYCARDPWSTEGSFFVLDYWGQGTLVTVSS
VL: EIVLTQSPATLSLSPGERATLSCRASQSVDDDLAWYQQKPGQAPRLLIYDASNRATGIPARFSGSGSGTDFTLTISSLEPEDFAVYYCQQYITAPLTFGQGTKVEIK
notes: frameworks VH3-23 / Vk-L6
RGA IC50 [1]: 0.87 mg/L
IC50 [2]: 0.35 mg/L
Kd [3]: 0.03 nM
koff [3]: 0.00257 s⁻¹
kon [3]: 8.71e+07 M⁻¹ s⁻¹
Kd [4]: 0.046 nM
koff [4]: 0.000756 s⁻¹
kon [4]: 1.65e+07 M⁻¹ s⁻¹

B7: STLM108 (antibody, V domains shown)
VH: B2 VH
VL: B2 VL with T93G, L96I
notes: frameworks VH3-23 / Vk-L6
RGA IC50 [1]: 2.34 mg/L
IC50 [2]: 0.23 mg/L
Kd [3]: 0.029 nM
koff [3]: 0.000598 s⁻¹
kon [3]: 2.05e+07 M⁻¹ s⁻¹
Kd [4]: 0.097 nM
koff [4]: 0.000222 s⁻¹
kon [4]: 2.29e+06 M⁻¹ s⁻¹

B8: STLM214 (antibody, V domains shown)
VH: B2 VH with I31S, I35F, T50D, G57R, Y59A
VL: B2 VL with T93D
notes: frameworks VH3-23 / Vk-L6
RGA IC50 [1]: 2.52 mg/L
IC50 [2]: 0.28 mg/L
Kd [3]: 0.037 nM
koff [3]: 0.000264 s⁻¹
kon [3]: 7.2e+06 M⁻¹ s⁻¹
Kd [4]: 0.033 nM
koff [4]: 0.000299 s⁻¹
kon [4]: 9.16e+06 M⁻¹ s⁻¹

B9: STLM222 (antibody, V domains shown)
VH: B2 VH with D33S, I35F, T50D, K52G, Y59S
VL: B2 VL with T93G, L96I
notes: frameworks VH3-23 / Vk-L6
RGA IC50 [1]: 1.88 mg/L
IC50 [2]: 0.25 mg/L
Kd [3]: 0.029 nM
koff [3]: 0.000345 s⁻¹
kon [3]: 1.18e+07 M⁻¹ s⁻¹
Kd [4]: 0.037 nM
koff [4]: 0.000301 s⁻¹
kon [4]: 8.22e+06 M⁻¹ s⁻¹

These reach a lower Kd [3]. Values come first.

RGA IC50 [1]: 2.79 mg/L
IC50 [2]: 0.39 mg/L
Kd [3]: 0.022 nM
koff [3]: 0.00013 s⁻¹
kon [3]: 6.04e+06 M⁻¹ s⁻¹
Kd [4]: 0.035 nM
koff [4]: 9.61e-05 s⁻¹
kon [4]: 2.73e+06 M⁻¹ s⁻¹
B6: STLM221 (antibody, V domains shown)
VH: B2 VH with I35F, T50Y, K52R, G57D, Y59N
VL: B2 VL with T93G, L96I
notes: frameworks VH3-23 / Vk-L6

RGA IC50 [1]: 1.33 mg/L
IC50 [2]: 0.42 mg/L
Kd [3]: 0.018 nM
koff [3]: 0.000265 s⁻¹
kon [3]: 1.45e+07 M⁻¹ s⁻¹
Kd [4]: 0.023 nM
koff [4]: 0.000224 s⁻¹
kon [4]: 9.89e+06 M⁻¹ s⁻¹
B1: STLM218 (antibody, V domains shown)
VH: B2 VH with I31V, Y32D, D33S, I35F, T50S, K52E, E54N, G57A
VL: B2 VL with T93G, L96I
notes: frameworks VH3-23 / Vk-L6

RGA IC50 [1]: 0.97 mg/L
IC50 [2]: 0.32 mg/L
Kd [3]: 0.009 nM
koff [3]: 0.000311 s⁻¹
kon [3]: 3.39e+07 M⁻¹ s⁻¹
Kd [4]: 0.026 nM
koff [4]: 0.00017 s⁻¹
kon [4]: 6.59e+06 M⁻¹ s⁻¹
B3: STLM209 (antibody, V domains shown)
VH: B2 VH with K52R, Y59S
VL: B2 VL
notes: frameworks VH3-23 / Vk-L6

RGA IC50 [1]: 1.1 mg/L
IC50 [2]: 0.44 mg/L
Kd [3]: 0.007 nM
koff [3]: 0.00065 s⁻¹
kon [3]: 1e+08 M⁻¹ s⁻¹
Kd [4]: 0.012 nM
koff [4]: 0.000341 s⁻¹
kon [4]: 2.9e+07 M⁻¹ s⁻¹
B5: STLM107 (antibody, V domains shown)
VH: B2 VH with I31D, D33A, I35F, T50A, K52E, G57E, Y59N
VL: B2 VL with T93G, L96I
notes: frameworks VH3-23 / Vk-L6

RGA IC50 [1]: 1.69 mg/L
IC50 [2]: 0.49 mg/L
Kd [3]: 0.004 nM
koff [3]: 0.000138 s⁻¹
kon [3]: 3.81e+07 M⁻¹ s⁻¹
Kd [4]: 0.017 nM
koff [4]: 0.000126 s⁻¹
kon [4]: 7.27e+06 M⁻¹ s⁻¹
B4: STLM217 (antibody, V domains shown)
VH: B2 VH with I31V, I35F, T50D, G57E, Y59S
VL: B2 VL with T93G, L96I
notes: frameworks VH3-23 / Vk-L6
